B1: DLC1 (parent)
chain: RDAIEALCRRLNTLNKCAVMKLEI

Variants of: B1
Experiment: protein stability index of a GFP-peptide fusion (GPS, HEK-293T) (PSI 1-6); higher = more stable
Conditions: c terminus: a fixed tail appended
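Further: lentivirally expressed fusions sorted by FACS into six bins by GFP to DsRed ratio, PSI derived from sequencing read proportions per bin multiplied by bin number.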

| Variant | protein stability index |
| --- | --- |
| RDAIEALCRRLTTLNKCAVMKLEI [N12T] | 2.2 |
| RDAIEALCRRLLTLNKCAVMKLEI [N12L] | 2.99 |
| RDAIEALCRRLVTLNKCAVMKLEI [N12V] | 2.37 |
| RDAIEALCRRLYTLNKCAVMKLEI [N12Y] | 3.36 |
| RDAIEALCRRLQTLNKCAVMKLEI [N12Q] | 1.45 |
| RDAIEALCRRLHTLNKCAVMKLEI [N12H] | 2.28 |
| RDAIEALCRRLMTLNKCAVMKLEI [N12M] | 1.84 |
| RDAIEALCRRLRTLNKCAVMKLEI [N12R] | 1.79 |
| RDAIEALCRRLDTLNKCAVMKLEI [N12D] | 4.53 |
| RDAIEALCRRLPTLNKCAVMKLEI [N12P] | 2.26 |
| RDAIEALCRRLKTLNKCAVMKLEI [N12K] | 2.79 |
| RDAIEALCRRLCTLNKCAVMKLEI [N12C] | 3.35 |
| RDAIEALCRRLATLNKCAVMKLEI [N12A] | 1.09 |
| RDAIEALCRRLETLNKCAVMKLEI [N12E] | 1.84 |
| RDAIEALCRRLFTLNKCAVMKLEI [N12F] | 2.97 |
| RDAIEALCRRLSTLNKCAVMKLEI [N12S] | 1.77 |
| RDAIEALCRRLNTANKCAVMKLEI [L14A] | 1.68 |
| RDAIEALCRRLNTCNKCAVMKLEI [L14C] | 2.35 |
| RDAIEALCRRLNTDNKCAVMKLEI [L14D] | 1.37 |
| RDAIEALCRRLNTENKCAVMKLEI [L14E] | 2.98 |
| RDAIEALCRRLNTHNKCAVMKLEI [L14H] | 2.74 |
| RDAIEAYCRRLNTLNKCAVMKLEI [L7Y] | 1.81 |
| RDAIEALCRRQNTLNKCAVMKLEI [L11Q] | 2.56 |
| RDAIEALCRRKNTLNKCAVMKLEI [L11K] | 2.96 |

| Variant | protein stability index |
| --- | --- |
| RDAIEALCRRFNTLNKCAVMKLEI [L11F] | 2.72 |
| RDAIEALCRRYNTLNKCAVMKLEI [L11Y] | 2.67 |
| RDAIEALCRRENTLNKCAVMKLEI [L11E] | 1.84 |
| RDAIEALCRRTNTLNKCAVMKLEI [L11T] | 2.52 |
| RDAIEALCRRHNTLNKCAVMKLEI [L11H] | 1.6 |
| RDAIEALCRRDNTLNKCAVMKLEI [L11D] | 3.27 |
| RDAIEALCRRWNTLNKCAVMKLEI [L11W] | 2.05 |
| RDAIEALCRRSNTLNKCAVMKLEI [L11S] | 3.62 |
| RDAIEALCRRCNTLNKCAVMKLEI [L11C] | 3.62 |
| RDAIEALCRRPNTLNKCAVMKLEI [L11P] | 2.84 |
| RDAIEALCRRNNTLNKCAVMKLEI [L11N] | 2.33 |
| RDAIEALCRRRNTLNKCAVMKLEI [L11R] | 1.89 |
| RDAIEALCRRLNKLNKCAVMKLEI [T13K] | 1.55 |
| RDAIEALCRRLNELNKCAVMKLEI [T13E] | 1.7 |
| RDAIEALCRRLNYLNKCAVMKLEI [T13Y] | 2.79 |
| RDAIEALCRRLNCLNKCAVMKLEI [T13C] | 2.26 |
| RDAIEALCRRLNILNKCAVMKLEI [T13I] | 2.04 |
| RDAIEALCRRLNRLNKCAVMKLEI [T13R] | 2.35 |
| RDAIEALCRRLNLLNKCAVMKLEI [T13L] | 2.33 |
| RDAIEALCRRLNHLNKCAVMKLEI [T13H] | 2.02 |
| RDAIEALCRRLNNLNKCAVMKLEI [T13N] | 2.28 |
| RDAIEALCRRLNSLNKCAVMKLEI [T13S] | 2.09 |
| RDAIEALPRRLNTLNKCAVMKLEI [C8P] | 2.04 |
| RDAIEALIRRLNTLNKCAVMKLEI [C8I] | 4.17 |

| Variant | protein stability index |
| --- | --- |
| RDAIEALMRRLNTLNKCAVMKLEI [C8M] | 3.9 |
| RDAIEALNRRLNTLNKCAVMKLEI [C8N] | 2.35 |
| RDAIEALARRLNTLNKCAVMKLEI [C8A] | 2.37 |
| RDAIEALYRRLNTLNKCAVMKLEI [C8Y] | 3.24 |
| RDAIEALWRRLNTLNKCAVMKLEI [C8W] | 4.11 |
| RDAIEALHRRLNTLNKCAVMKLEI [C8H] | 2.7 |
| RDAIEALVRRLNTLNKCAVMKLEI [C8V] | 2.73 |
| RDAIEALQRRLNTLNKCAVMKLEI [C8Q] | 1.07 |
| RDAIEALTRRLNTLNKCAVMKLEI [C8T] | 1.46 |
| RDAIEALLRRLNTLNKCAVMKLEI [C8L] | 2.33 |
| RDAIEALGRRLNTLNKCAVMKLEI [C8G] | 3.13 |
| RDAIEALFRRLNTLNKCAVMKLEI [C8F] | 2.82 |
| RDAIEALKRRLNTLNKCAVMKLEI [C8K] | 1.84 |
| RDAIEALDRRLNTLNKCAVMKLEI [C8D] | 2 |
| RDAIEALSRRLNTLNKCAVMKLEI [C8S] | 1.39 |
| RDAIEALRRRLNTLNKCAVMKLEI [C8R] | 1.41 |
| RDAIEALCKRLNTLNKCAVMKLEI [R9K] | 1.69 |
| RDAIEALCLRLNTLNKCAVMKLEI [R9L] | 1.63 |
| RDAIEALCQRLNTLNKCAVMKLEI [R9Q] | 4.01 |
| RDAIEALCTRLNTLNKCAVMKLEI [R9T] | 2.37 |
| RDAIEALCIRLNTLNKCAVMKLEI [R9I] | 1.79 |
| RDAIEALCERLNTLNKCAVMKLEI [R9E] | 4.07 |
| RDAIEALCFRLNTLNKCAVMKLEI [R9F] | 2.45 |
| RDAIEALCSRLNTLNKCAVMKLEI [R9S] | 4.18 |

| Variant | protein stability index |
| --- | --- |
| RDAIEALCCRLNTLNKCAVMKLEI [R9C] | 3.38 |
| RDAIEALCVRLNTLNKCAVMKLEI [R9V] | 2.69 |
| RDAIEALCDRLNTLNKCAVMKLEI [R9D] | 2.25 |
| RDAIEALCGRLNTLNKCAVMKLEI [R9G] | 1.83 |
| RDAIEALCNRLNTLNKCAVMKLEI [R9N] | 3.68 |
| RDAIEALCHRLNTLNKCAVMKLEI [R9H] | 3.54 |
| RDAIEALCRVLNTLNKCAVMKLEI [R10V] | 1.86 |
| RDAIEALCRSLNTLNKCAVMKLEI [R10S] | 3.43 |
| RDAIEALCRTLNTLNKCAVMKLEI [R10T] | 3.17 |
| RDAIEALCRKLNTLNKCAVMKLEI [R10K] | 3.44 |
| RDAIEALCRNLNTLNKCAVMKLEI [R10N] | 4.43 |
| RDAIEALCRHLNTLNKCAVMKLEI [R10H] | 3.54 |
| RDAIEALCRYLNTLNKCAVMKLEI [R10Y] | 2.21 |
| RDAIEALCRQLNTLNKCAVMKLEI [R10Q] | 3.82 |
| RDAIEALCRLLNTLNKCAVMKLEI [R10L] | 2.43 |
| RDAIEALCRALNTLNKCAVMKLEI [R10A] | 2.67 |
| RDAIEALCRPLNTLNKCAVMKLEI [R10P] | 2.71 |
| RDAIEALCRFLNTLNKCAVMKLEI [R10F] | 1.86 |
| RDAIEALCRMLNTLNKCAVMKLEI [R10M] | 3.3 |
| RDAIEALCRWLNTLNKCAVMKLEI [R10W] | 2.52 |
| RDAIEALCRILNTLNKCAVMKLEI [R10I] | 4.62 |
| RDAIEALCRCLNTLNKCAVMKLEI [R10C] | 3.31 |

— the supplement of paper PMC10567573
